Measurements reported in patent CN117866905A (BEILAI PHARMACEUTICAL CO LTD, dated 2024).

T1: IL-17A重组蛋白(抗原), C端6×His标签 (human, UniProt Q16552 24-155, limits assumed, biotin in the ELISA of paragraph 227 (Biotin-IL-17A-His); site not stated)
T1 sequence: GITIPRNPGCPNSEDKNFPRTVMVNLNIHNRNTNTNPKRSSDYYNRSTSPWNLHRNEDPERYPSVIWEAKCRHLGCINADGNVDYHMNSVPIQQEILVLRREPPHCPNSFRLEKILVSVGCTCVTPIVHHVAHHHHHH


Tests used:
[1] = biological target: T1, IL-17A重组蛋白(抗原), C端6×His标签; test: cell-based or functional assay
[2] = biological target: T1, IL-17A重组蛋白(抗原), C端6×His标签; test: ELISA; antibody coated at 2 ug/mL, Biotin-IL-17A-His titrated from 10 ug/mL in 5-fold steps, HRP-streptavidin
[3] = biological target: 生物素化的IL-17A (ACRO Biosystems kit EP-139) (UniProt Q16552); test: competition ELISA kit (ACRO EP-139); IL-17RA coated, biotinylated IL-17A, supernatant diluted 5-fold; inhibition of IL-17A/IL-17RA binding

阻断Human IL-17A蛋白激活293F-IL-17RA-IL-17Rc-ACT1-NFκB-Luc, IC50 [1] [nM]	EC50 [2] [µg/mL]	结合抑制率 [3] [%]	Binder
2.23	10.1		阳性对照抗体依奇珠单抗 (Ixekizumab) (antibody, human IgG4 S228P, kappa, V domains shown, also called 阳性抗体) VH: QVQLVQSGAEVKKPGSSVKVSCKASGYSFTDYHIHWVRQAPGQGLEWMGVINPMYGTTDYNQRFKGRVTITADESTSTAYMELSSLRSEDTAVYYCARYDYFTGTGVYWGQGTLVTVSS VL: DIVMTQTPLSLSVTPGQPASISCRSSRSLVHSRGNTYLHWYLQKPGQSPQLLIYKVSNRFIGVPDRFSGSGSGTDFTLKISRVEAEDVGVYYCSQSTHLPFTFGQGTKLEIKR
		60	G4-H10:Fc融合蛋白 (IL-17Nb secreted by G4-H10-MSC; VHH-(GGGGS)3-VHH-IgG4 Fc) (Fc fusion) QVQLVESGGGLVQPGGSLRLSCAASGEKLDYFAIGWFRQAPGKEREVVSCVTSSGSSTNYLSSVKDRFTISIDNAKNTVYLQMNSLKPEDTAIYYCASTILLCSDYISAFGTWGQGTQVTVASGGGGSGGGGSGGGGSEVQLVESGGGLVQPGGSLRLSCAASGFSIHIYAMGWYRQAPGKQRELVATITRGGVTNNADSVKGRFTISRDNAKNTAYLQMNSLKPEDTAVYYCNAGGTNGGYWGQGTQVTVSSAPEFLGGPSVFLFPPKPKDTLMISRTPEVTCVVVDVSQEDPEVQFNWYVDGVEVHNAKTKPREEQFNSTYRVVSVLTVLHQDWLNGKEYKCKVSNKGLPSSIEKTISKAKGQPREPQVYTLPPSQEEMTKNQVSLTCLVKGFYPSDIAVEWESNGQPENNYKTTPPVLDSDGSFFLYSRLTVDKSRWQEGNVFSCSVMHEALHNHYTQKSLSLSLGK
